Measured values: patent US20220089722A1 (NANTONG YICHEN BIOPHARMA, published 2022)

T1: CD19 on NALM-6 cells (UniProt P15391 20-556, limits assumed)
T1 sequence (looked up): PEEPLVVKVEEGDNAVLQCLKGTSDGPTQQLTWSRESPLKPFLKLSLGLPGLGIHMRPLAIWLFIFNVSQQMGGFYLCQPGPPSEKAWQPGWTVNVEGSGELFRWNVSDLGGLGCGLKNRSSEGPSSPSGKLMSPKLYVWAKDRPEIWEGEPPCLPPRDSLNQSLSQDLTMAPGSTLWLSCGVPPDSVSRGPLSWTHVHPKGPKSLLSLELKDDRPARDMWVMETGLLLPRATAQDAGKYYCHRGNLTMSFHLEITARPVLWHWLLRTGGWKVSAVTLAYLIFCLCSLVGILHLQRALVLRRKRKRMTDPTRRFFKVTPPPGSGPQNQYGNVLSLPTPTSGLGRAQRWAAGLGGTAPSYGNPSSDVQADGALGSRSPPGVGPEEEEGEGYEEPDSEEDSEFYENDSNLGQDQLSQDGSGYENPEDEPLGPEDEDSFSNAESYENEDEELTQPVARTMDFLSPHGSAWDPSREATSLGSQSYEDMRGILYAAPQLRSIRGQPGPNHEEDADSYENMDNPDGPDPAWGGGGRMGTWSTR

B1: IgFD-7(anti-CD19/CD3) (bispecific antibody, human IgG1, kappa)
chain 1: EVQLVESGGGLVQPGGSLRLSCAASGFTFNTYAMNWVRQAPGKGLEWVARIRSKYNNYATYYADSVKDRFTISRDDSKNTLYLQMNSLRAEDTAVYYCVRHGNFGNSYVSWFAYWGQGTLVTVSSASTKGPSVFPLAPSSKSTSGGTAALGCLVKDYFPEPVTVSWNSGALTSGVHTFPAVLQSSGLYSLSSVVTVPSSSLGTQTYICNVNHKPSNTKVDKKVEPKSCDKTHTCPPCPAPPVAGPSVFLFPPKPKDTLMISRTPEVTCVVVDVSHEDPEVKFNWYVDGVEVHNAKTKPREEQYNSTYRVVSVLTVLHQDWLNGKEYKCKVSNKGLPSSIEKTISKAKGQPREPQVYTLPPSRDELTKNQVSLTCLVKGFYPSDIAVEWESNGQPENNYKTTPPVLDSDGSFFLYSKLTVDKSRWQQGNVFSCSVMHEALHNHYTQKSLSLSPGK
chain 2: QAVVTQEPSLTVSPGGTVTLTCRSSTGAVTTSNYANWVQQKPDHLFRGLIGGTNKRAPGTPARFSGSLLGDKAALTISGAQPEDEAEYYCALWYSNLWVFGGGTKLTVLKRTVAAPSVFIFPPSDEQLKSGTASVVCLLNNFYPREAKVQWKVDNALQSGNSQESVTEQDSKDSTYSLSSTLTLSKADYEKHKVYACEVTHQGLSSPVTKSFNRGECDKTHTCPPCPAPPVAGPSVFLFPPKPKDTLMISRTPEVTCVVVDVSHEDPEVKFNWYVDGVEVHNAKTKPREEQYNSTYRVVSVLTVLHQDWLNGKEYKCKVSNKGLPSSIEKTISKAKGQPREPQVYTLPPSRDELTKNQVSLTCLVKGFYPSDIAVEWESNGQPENNYKTTPPVLDSDGSFFLYSKLTVDKSRWQQGNVFSCSVMHEALHNHYTQKSLSLSPGKSGGGGSGGGGSGGGGSDIQMTQTTSSLSASLGDRVTISCRASQDISKYLNWYQQKPDGTVKLLIYHTSRLHSGVPSRFSGSGSGTDYSLTISNLEQEDIATYFCQQGNTLPYTFGGGTKLEITGGGGSGGGGSGGGGSEVKLQESGPGLVAPSQSLSVTCTVSGVSLPDYGVSWIRQPPRKGLEWLGVIWGSETTYYNSALKSRLTIIKDNSKSQVFLKMNSLQTDDTAIYYCAKHYYYGGSYAMDYWGQGTSVTVSS
B2: IgFD-37(anti-CD3/MICA) (Fc fusion)
chain 1: EVQLVESGGGLVQPGGSLRLSCAASGFTFNTYAMNWVRQAPGKGLEWVARIRSKYNNYATYYADSVKDRFTISRDDSKNTLYLQMNSLRAEDTAVYYCVRHGNFGNSYVSWFAYWGQGTLVTVSSASTKGPSVFPLAPSSKSTSGGTAALGCLVKDYFPEPVTVSWNSGALTSGVHTFPAVLQSSGLYSLSSVVTVPSSSLGTQTYICNVNHKPSNTKVDKKVEPKSCDKTHTCPPCPAPPVAGPSVFLFPPKPKDTLMISRTPEVTCVVVDVSHEDPEVKFNWYVDGVEVHNAKTKPREEQYNSTYRVVSVLTVLHQDWLNGKEYKCKVSNKGLPSSIEKTISKAKGQPREPQVYTLPPCRDELTKNQVSLWCLVKGFYPSDIAVEWESNGQPENNYKTTPPVLDSDGSFFLYSKLTVDKSRWQQGNVFSCSVMHEALHNHYTQKSLSLSPGKGGSGAKLAALKAKLAALKGGGGSFLNSLFNQEVQIPLTESYCGPCPKNWICYKNNCYQFFDESKNWYESQASCMSQNASLLKVYSKEDQDLLKLVKSYHWMGLVHIPTNGSWQWEDGSILSPNLLTIIEMQKGDCALYASSFKGYIENCSTPNTYICMQRTV
chain 2: QAVVTQEPSLTVSPGGTVTLTCRSSTGAVTTSNYANWVQQKPDHLFRGLIGGTNKRAPGTPARFSGSLLGDKAALTISGAQPEDEAEYYCALWYSNLWVFGGGTKLTVLKRTVAAPSVFIFPPSDEQLKSGTASVVCLLNNFYPREAKVQWKVDNALQSGNSQESVTEQDSKDSTYSLSSTLTLSKADYEKHKVYACEVTHQGLSSPVTKSFNRGECDKTHTCPPCPAPPVAGPSVFLFPPKPKDTLMISRTPEVTCVVVDVSHEDPEVKFNWYVDGVEVHNAKTKPREEQYNSTYRVVSVLTVLHQDWLNGKEYKCKVSNKGLPSSIEKTISKAKGQPREPQVCTLPPSRDELTKNQVSLSCAVKGFYPSDIAVEWESNGQPENNYKTTPPVLDSDGSFFLVSKLTVDKSRWQQGNVFSCSVMHEALHNHYTQKSLSLSPGKGGSGAKLAALKAKLAALKGGGGSFLNSLFNQEVQIPLTESYCGPCPKNWICYKNNCYQFFDESKNWYESQASCMSQNASLLKVYSKEDQDLLKLVKSYHWMGLVHIPTNGSWQWEDGSILSPNLLTIIEMQKGDCALYASSFKGYIENCSTPNTYICMQRTV
B3: IgFD-6(anti-CD19/CD3) (bispecific antibody, human IgG1, kappa)
chain 1: EVQLVESGGGLVQPGGSLRLSCAASGFTFNTYAMNWVRQAPGKGLEWVARIRSKYNNYATYYADSVKDRFTISRDDSKNTLYLQMNSLRAEDTAVYYCVRHGNFGNSYVSWFAYWGQGTLVTVSSASTKGPSVFPLAPSSKSTSGGTAALGCLVKDYFPEPVTVSWNSGALTSGVHTFPAVLQSSGLYSLSSVVTVPSSSLGTQTYICNVNHKPSNTKVDKKVEPKSCDKTHTCPPCPAPPVAGPSVFLFPPKPKDTLMISRTPEVTCVVVDVSHEDPEVKFNWYVDGVEVHNAKTKPREEQYNSTYRVVSVLTVLHQDWLNGKEYKCKVSNKGLPSSIEKTISKAKGQPREPQVYTLPPSRDELTKNQVSLTCLVKGFYPSDIAVEWESNGQPENNYKTTPPVLDSDGSFFLYSKLTVDKSRWQQGNVFSCSVMHEALHNHYTQKSLSLSPGKSGGGGSGGGGSGGGGSDIQMTQTTSSLSASLGDRVTISCRASQDISKYLNWYQQKPDGTVKLLIYHTSRLHSGVPSRFSGSGSGTDYSLTISNLEQEDIATYFCQQGNTLPYTFGGGTKLEITGGGGSGGGGSGGGGSEVKLQESGPGLVAPSQSLSVTCTVSGVSLPDYGVSWIRQPPRKGLEWLGVIWGSETTYYNSALKSRLTIIKDNSKSQVFLKMNSLQTDDTAIYYCAKHYYYGGSYAMDYWGQGTSVTVSS
chain 2: QAVVTQEPSLTVSPGGTVTLTCRSSTGAVTTSNYANWVQQKPDHLFRGLIGGTNKRAPGTPARFSGSLLGDKAALTISGAQPEDEAEYYCALWYSNLWVFGGGTKLTVLKRTVAAPSVFIFPPSDEQLKSGTASVVCLLNNFYPREAKVQWKVDNALQSGNSQESVTEQDSKDSTYSLSSTLTLSKADYEKHKVYACEVTHQGLSSPVTKSFNRGECDKTHTCPPCPAPPVAGPSVFLFPPKPKDTLMISRTPEVTCVVVDVSHEDPEVKFNWYVDGVEVHNAKTKPREEQYNSTYRVVSVLTVLHQDWLNGKEYKCKVSNKGLPSSIEKTISKAKGQPREPQVYTLPPSRDELTKNQVSLTCLVKGFYPSDIAVEWESNGQPENNYKTTPPVLDSDGSFFLYSKLTVDKSRWQQGNVFSCSVMHEALHNHYTQKSLSLSPGK

Experiments:
CD19 on NALM-6 cells = molecular target: T1, CD19 on NALM-6 cells; test: cell-based or functional assay
[1] = molecular target: MICA on PANC-1, BXPC-3 or K562 cells (UniProt Q29983 24-383, limits assumed); test: cell-based or functional assay
MICA on PANC-1, BXPC-3 or K562 cells, sequence (Q29983 24-383 limits assumed): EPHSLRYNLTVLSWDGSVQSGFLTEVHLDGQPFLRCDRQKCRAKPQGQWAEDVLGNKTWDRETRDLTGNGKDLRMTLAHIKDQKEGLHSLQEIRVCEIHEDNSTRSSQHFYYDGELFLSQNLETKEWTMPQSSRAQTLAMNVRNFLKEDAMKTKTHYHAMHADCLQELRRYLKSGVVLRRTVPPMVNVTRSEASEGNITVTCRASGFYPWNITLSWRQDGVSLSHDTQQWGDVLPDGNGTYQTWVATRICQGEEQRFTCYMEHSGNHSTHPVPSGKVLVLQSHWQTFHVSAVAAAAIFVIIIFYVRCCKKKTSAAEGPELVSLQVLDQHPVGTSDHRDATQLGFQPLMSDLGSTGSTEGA

Binder | Promotion for the specific killing effect of PBMCs on target cells by heterodimers (EC50, pM); Nalm-6 cells (CD19 on NALM-6 cells) [pM] | Promotion for the specific killing effect of PBMCs on target cells by heterodimers (EC50, pM); K562 cells, LDH assay [1] [pM] | Promotion for the specific killing effect of PBMCs on target cells by heterodimers (EC50, pM); PANC-1 cells, LDH assay [1] [pM]
B1 | 11.7 | – | –
B2 | – | 1090 | 676
B3 | 14.9 | – | –
